The text below walks through data of US20040106555, “Neurogenin3 and production of pancreatic islet cells” (published 2004).

The target of data set [1] is T1, HNF3beta (FOXA2) (Rattus norvegicus, UniProt P32182 P32182:1-458).
T1 sequence: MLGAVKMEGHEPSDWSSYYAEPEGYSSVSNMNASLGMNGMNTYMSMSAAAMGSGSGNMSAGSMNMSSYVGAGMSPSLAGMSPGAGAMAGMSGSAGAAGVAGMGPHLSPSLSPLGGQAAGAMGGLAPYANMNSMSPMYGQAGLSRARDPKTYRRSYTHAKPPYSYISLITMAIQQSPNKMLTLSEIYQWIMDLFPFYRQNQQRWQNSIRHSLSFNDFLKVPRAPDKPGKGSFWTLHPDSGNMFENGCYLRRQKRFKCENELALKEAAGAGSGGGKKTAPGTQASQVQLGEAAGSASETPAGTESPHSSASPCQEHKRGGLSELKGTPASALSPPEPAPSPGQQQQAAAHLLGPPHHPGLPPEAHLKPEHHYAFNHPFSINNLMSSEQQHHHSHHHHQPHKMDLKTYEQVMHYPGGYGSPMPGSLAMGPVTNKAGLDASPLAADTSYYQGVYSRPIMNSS
The data set is described as follows: EMSA; high affinity; proximal and distal sites compete equally. The following applies: tags: pGEM-1 ratHNF3beta, TNT lysate; label: 32P. The source says:
(§1) Single-stranded oligonucleotides corresponding to the sequences in the human ngn3 promoter were 5′ end-labeled with [γ-³²P]-ATP using T4 polynucleotide kinase. The labeled oligonucleotides were column-purified and annealed to an excess of the complementary strand. For HNF3β and HNF 1α binding experiments, EMSA buffers and electrophoresis conditions were as previously described (Mirmira et al. J Biol Chem 275:14743-51, 2000). For HES-1 binding experiments, conditions were the same except that the poly(dI-dC) concentration was decreased to 15 ng/ul. One μl of the in vitro reaction mixture or 2 ug of nuclear extracts or 400 ng of GST-fused Hes1 protein were used for each binding reaction. When using antibodies, 1 μl of each antibody was incubated with the binding mix for 15 min at room temperature prior to gel-electrophoresis. The antisera against HNF-3α, -3β, and -3γ were a generous gift from R. Costa (University of Illinois) and the HES-1 antiserum was a generous gift from Y. Jan (University of California San Francisco). The anti-HNF-1α antiserum was purchased from Santa Cruz Biotechnology, Inc. […]
Background: Mobility shift assays separate free from complexed probe on a gel.

Data set [2] concerns the target T1, HNF3beta (FOXA2). The data set is described as follows: EMSA; high affinity. Conditions: tags: pGEM-1 ratHNF3beta, TNT lysate; label: 32P.
Source text: as §1

Another data set concerns the target NeuroD1 (UniProt Q60867 Q60867:1-357). Description: EMSA; homodimer. Conditions: tags: TNT reticulocyte lysate; chain copies: 2 stated; label: 32P. Here is the method: (§2) FIGS. 23A-23B are photographs of electromobility shift assays (EMSAs) showing that bHLH factors bind pancreatic promoter E boxes. EMSA were used to test the ability of E47, neurogenin3 and neuroD 1 to bind to labeled, double stranded oligonucleotides containing the E box sequences from the rat insulin I and mouse nkx2.2 promoters (23A) or the human PAX4 and NEUROG3 promoters (23B). 1 μl of each in vitro-translated protein was incubated with the indicated probes, either individually or in the combination shown. Results are typical of experiments done on three occasions.
(§3) Electromobility Shift Assays. Single stranded oligonucleotides were 5′-end labeled using (γ-32P) ATP and T4 polynucleotide kinase. An excess of complementary strand was then annealed to form a duplex strand that was column purified. EMSA buffers and electrophoresis conditions were as described above using 500 ng of poly(dIdC):poly(dIdC) per 10 ul binding mix. For in vitro produced protein, 1 μl of the 50 μl total reaction volume was used per binding mix.
(§4) Oligonucleotides used were as follows (coding strand shown from each double stranded pair): NEUROG3 promoter E element, 5′-[…]-3′; rat insulin I promoter E2 element, 5′-[…]-3′; PAX4 promoter E element, 5′-[…]-3′; nkx2.2 promoter E3 element 5′-[…]-3′. EMSA results are representative of those seen on at least 3 occasions.

In another data set the target is T2, E47 (UniProt P15923-2 P15923-2:1-651).
T2 sequence: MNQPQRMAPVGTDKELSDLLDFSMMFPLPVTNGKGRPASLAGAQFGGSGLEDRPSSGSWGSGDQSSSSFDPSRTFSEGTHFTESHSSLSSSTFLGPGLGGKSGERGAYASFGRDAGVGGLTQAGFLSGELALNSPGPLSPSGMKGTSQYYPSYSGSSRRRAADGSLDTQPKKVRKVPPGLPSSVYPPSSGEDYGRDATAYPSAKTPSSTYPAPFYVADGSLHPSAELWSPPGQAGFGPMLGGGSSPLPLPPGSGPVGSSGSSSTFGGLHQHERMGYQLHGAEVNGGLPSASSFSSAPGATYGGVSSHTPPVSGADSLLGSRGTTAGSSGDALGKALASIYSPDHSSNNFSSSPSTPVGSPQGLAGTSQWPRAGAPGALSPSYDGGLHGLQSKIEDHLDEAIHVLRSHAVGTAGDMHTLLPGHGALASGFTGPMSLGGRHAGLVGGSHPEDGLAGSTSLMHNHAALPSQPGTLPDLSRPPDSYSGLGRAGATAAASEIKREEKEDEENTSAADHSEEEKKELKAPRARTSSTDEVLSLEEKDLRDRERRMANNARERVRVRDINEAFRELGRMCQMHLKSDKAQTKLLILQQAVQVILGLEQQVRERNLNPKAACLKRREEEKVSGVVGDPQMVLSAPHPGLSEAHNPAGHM
Description: EMSA; comparable affinity on all four probes. Conditions: tags: TNT reticulocyte lysate; chain copies: 2 inferred; label: 32P. Here is the method: as §2, §3, §4

Data set [3] addresses T3, E47/NeuroD1 heterodimer (UniProt P15923-2;Q60867 P15923-2:1-651,Q60867:1-357). The data set is described as follows: EMSA; third of four. Conditions: tags: TNT reticulocyte lysate; label: 32P. Here is the method: as §2, §3, §4
In data set [4] the target is T3, E47/NeuroD1 heterodimer. Description: EMSA; second strongest of four. The following applies: tags: TNT reticulocyte lysate; label: 32P. As to the method: as §2, §3, §4
Data set [5] addresses T3, E47/NeuroD1 heterodimer. The data set is described as follows: EMSA; strongest of four. The following applies: tags: TNT reticulocyte lysate; label: 32P. Here is the method:
as §2, §3, §4

T3 sequence (Q60867 whole entry, one chain of several): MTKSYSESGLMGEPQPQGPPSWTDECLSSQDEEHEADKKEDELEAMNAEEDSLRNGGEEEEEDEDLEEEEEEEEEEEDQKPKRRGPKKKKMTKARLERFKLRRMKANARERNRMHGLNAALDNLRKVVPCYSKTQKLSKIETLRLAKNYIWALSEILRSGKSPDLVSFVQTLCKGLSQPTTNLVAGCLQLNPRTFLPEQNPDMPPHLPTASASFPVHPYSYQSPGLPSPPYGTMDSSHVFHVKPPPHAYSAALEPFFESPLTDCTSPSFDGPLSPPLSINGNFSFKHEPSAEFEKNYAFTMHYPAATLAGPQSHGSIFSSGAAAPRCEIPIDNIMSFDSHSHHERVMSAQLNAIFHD
NeuroD1, sequence (Q60867 whole entry, one chain of several): as above

B1: H3-2 (ngn3 promoter distal) (dsDNA)
DNA 1: TTATTATTATTTTAGCAAACACTGGAGACAG
DNA 2: CTGTCTCCAGTGTTTGCTAAAATAATAATAA
As to B1, the binding result with HNF3beta (FOXA2) [1] is listed as “binds”.

B2: H3-1 (ngn3 promoter proximal) (dsDNA)
DNA 1: GATCTCTCGAGAGAGCAAACAGCGCGGCGG
DNA 2: CCGCCGCGCTGTTTGCTCTCTCGAGAGATC
As for B2, in the data set with HNF3beta (FOXA2) [2], the binding result is reported as “binds”.

B3: nkx2.2 E3 (dsDNA)
DNA 1: TTATTACCGCTGAACATATGGCCAATATTTTGACT
DNA 2: AGTCAAAATATTGGCCATATGTTCAGCGGTAATAA
Turning to B3, the binding result with NeuroD1, with E47 and with E47/NeuroD1 heterodimer [3] was “binds” throughout.

B4: rat insulin I E2 (dsDNA)
DNA 1: CTGCTTCATCAGGCCATCTGGCCCCTTGTTAATAA
DNA 2: TTATTAACAAGGGGCCAGATGGCCTGATGAAGCAG
B4: the binding result with E47 and with E47/NeuroD1 heterodimer [4] was “binds” in each case.

B5: PAX4 E box (dsDNA)
DNA 1: TGTATAATTGTGAGCAGATGGCGGGGGCTGGCGGC
DNA 2: GCCGCCAGCCCCCGCCATCTGCTCACAATTATACA
In the case of B5, the binding result in the data set with E47/NeuroD1 heterodimer [5] and in the data set with E47 was “binds” each time.

B6: NEUROG3 E box (dsDNA)
DNA 1: CTTTGTCCGGAATCCAGCTGTGCCCTGCGGGGGAG
DNA 2: CTCCCCCGCAGGGCACAGCTGGATTCCGGACAAAG
Turning to B6, in the data set with E47, the binding result was “binds”.
